From patent US20170342349A1, “STABILIZED ENZYME COMPOSITIONS” (NOVOZYMES A/S, priority 2014, published 2017)
Several values for one entry are separate records, joined by “and”; a condition that tells them apart may be missing. Equal entries are not always repeated.

Experiment: Inhibitor binding assay of SEQ ID NO 3 variants, Inhibitor 1, in Model B detergent
Type: biochemical
Conditions: in Model B relative to SEQ ID NO 3 comprising S173P + S175P + F180Y; relative Ki, IF>1.0 = lower Ki
Source text: Where E is the protease, I is the inhibitor and EI is the protease-inhibitor complex. […] The concentration of enzyme-inhibitor in the detergent solution is then given by:
where Etot is the total protease concentration ([Etot]=[E]+[EI]), Itot is the total inhibitor concentration ([Itot]=[I]+[EI]), and Ki is the equilibrium binding constant for the reaction. The measured slopes V are given by:
where V0 is the slope without inhibitor added. To calculate apparent binding constant Ki least square fitting of measured slopes at various inhibitor concentrations to this equation is performed with Ki and V0 as variables.
Purified protease variants are pre-diluted to approximately 0.2 mg/ml in dilution buffer. The experimental conditions are described in Table 5. 40 μl diluted protease is then mixed with 40 μl inhibitor solution Inhibitor 1: (Cbz-Gly-Ala-NHCH(CH2C6H4pOH)C(OH)(SO3Na)—H, wherein Cbz is benzyloxycarbonyl) or 40 μl Inhibitor 2: (4-FPBA) solution in the well of a 96 well microtiter plate (Nunc F 96-MTP). […] After 10 min mixing of protease and inhibitor at room temperature, 30 μl of the mixture is transferred to a microtiter plate (Nunc U96 PP 0.5 ml) with 270 μl Model B detergent (described in Table 1) in the wells resulting in inhibitor 1 concentrations of 0-30 μM and inhibitor 2 concentrations of 0-6000 μM. Protease, inhibitor and detergent is mixed for 1 hour using magnetic bars for 1 hour at room temperature to reach equilibrium. Then 20 μl is transferred to a microtiter plate (Nunc F 96-MTP). 100 μl substrate solution is added and after 5 sec mixing absorbance at 405 nm is measured every 20 sec for 5 min on a SpectraMax Plus reader. Slope from linear regression of initial increase in absorbance at 405 nm is used for calculation of apparent binding constants. Ki values were calculated according to the “Calculation of Ki” method described in “Materials and Methods”
Having the Ki for each variant, it is possible to calculate the effect of a single mutation, if data are available for at least two variants that differ only by that mutation. In this case, the relative Ki for the mutation (Improvement Factor, or IF) is calculated:
A lower Ki is desirable, as a satisfactory inhibition can be obtained at a lower inhibitor concentration, so beneficial mutations have an IF>1.0

Row | inhibitor 1 binding constant improvement factors (IF) | Molecule
1 | 1.41 | S114F + S173P + S175P + F180Y: protease variant of SEQ ID NO 3 (protein, listed as Bacillus sp.) AVPSTQTPWGIKSIYNDQSITKTTGGSGIKVAVLDTGVYTSHLDLAGSAEQCKDFTQSNPLVDGSCTDRQGHGTHVAGTVLAHGGSNGQGVYGVAPQAKLWAYKVLGDNGSGYFDDIAAAIRHVADEASRTGSKVVINMSLGSSAKDSLIASAVDYAYGKGVLIVAAAGNSGPGPNTIGYPGGLVNAVAVAALENVQQNGTYRVADFSSRGNPATAGDYIIQERDIEVSAPGASVESTWYTGGYNTISGTSMATPHVAGLAAKIWSANTSLSHSQLRTELQNRAKVYDIKGGIGAGTGDDYASGFGYPRVK
2 | 4.13 | Q70A + S173P + S175P + F180Y: protease variant of SEQ ID NO 3 (protein, listed as Bacillus sp.) AVPSTQTPWGIKSIYNDQSITKTTGGSGIKVAVLDTGVYTSHLDLAGSAEQCKDFTQSNPLVDGSCTDRAGHGTHVAGTVLAHGGSNGQGVYGVAPQAKLWAYKVLGDNGSGYSDDIAAAIRHVADEASRTGSKVVINMSLGSSAKDSLIASAVDYAYGKGVLIVAAAGNSGPGPNTIGYPGGLVNAVAVAALENVQQNGTYRVADFSSRGNPATAGDYIIQERDIEVSAPGASVESTWYTGGYNTISGTSMATPHVAGLAAKIWSANTSLSHSQLRTELQNRAKVYDIKGGIGAGTGDDYASGFGYPRVK
3 | 2.15 | S173P + S175P + I178Y + F180Y: protease variant of SEQ ID NO 3 (protein, listed as Bacillus sp.) AVPSTQTPWGIKSIYNDQSITKTTGGSGIKVAVLDTGVYTSHLDLAGSAEQCKDFTQSNPLVDGSCTDRQGHGTHVAGTVLAHGGSNGQGVYGVAPQAKLWAYKVLGDNGSGYSDDIAAAIRHVADEASRTGSKVVINMSLGSSAKDSLIASAVDYAYGKGVLIVAAAGNSGPGPNTYGYPGGLVNAVAVAALENVQQNGTYRVADFSSRGNPATAGDYIIQERDIEVSAPGASVESTWYTGGYNTISGTSMATPHVAGLAAKIWSANTSLSHSQLRTELQNRAKVYDIKGGIGAGTGDDYASGFGYPRVK
4 | 4.28 and 3.02 | S173P + S175P + F180Y + L184F: protease variant of SEQ ID NO 3 (protein, listed as Bacillus sp.) AVPSTQTPWGIKSIYNDQSITKTTGGSGIKVAVLDTGVYTSHLDLAGSAEQCKDFTQSNPLVDGSCTDRQGHGTHVAGTVLAHGGSNGQGVYGVAPQAKLWAYKVLGDNGSGYSDDIAAAIRHVADEASRTGSKVVINMSLGSSAKDSLIASAVDYAYGKGVLIVAAAGNSGPGPNTIGYPGGFVNAVAVAALENVQQNGTYRVADFSSRGNPATAGDYIIQERDIEVSAPGASVESTWYTGGYNTISGTSMATPHVAGLAAKIWSANTSLSHSQLRTELQNRAKVYDIKGGIGAGTGDDYASGFGYPRVK
5 | 2.49 and 2.01 | S173P + S175P + F180Y + G182A: protease variant of SEQ ID NO 3 (protein, listed as Bacillus sp.) AVPSTQTPWGIKSIYNDQSITKTTGGSGIKVAVLDTGVYTSHLDLAGSAEQCKDFTQSNPLVDGSCTDRQGHGTHVAGTVLAHGGSNGQGVYGVAPQAKLWAYKVLGDNGSGYSDDIAAAIRHVADEASRTGSKVVINMSLGSSAKDSLIASAVDYAYGKGVLIVAAAGNSGPGPNTIGYPAGLVNAVAVAALENVQQNGTYRVADFSSRGNPATAGDYIIQERDIEVSAPGASVESTWYTGGYNTISGTSMATPHVAGLAAKIWSANTSLSHSQLRTELQNRAKVYDIKGGIGAGTGDDYASGFGYPRVK
